Data on 40 sequences can be found in the nanobody polyreactivity screen of Harvey et al. (2022).

This data set can be described thus: yeast display, Sf9 membrane polyspecificity reagent, FACS + sequencing; frameworks hold sequencing errors. Summed up:
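A nanobody's polyreactivity label depends on the gate it was sorted from. Yeast display cells were stained with 10% biotinylated, detergent-solubilized Sf9 membrane reagent for 1 hour at 4 °C, enriched on streptavidin microbeads and sorted by FACS. The low and high (top ~1%) gates were set on anti-HA fluorescence for expression and streptavidin fluorescence for reagent binding.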
Consider “QVQLVESGGGLVQAGGSLRLSCAASGFIFTKYVMGWYRQAPGKERELVAAISSGGGRTYYADSVKGRFTISRDNGKYTVYLQMNSQKPEDTAVYYCNIDDERGKLYYWGQGTQVTVSS”, for which the “polyreactivity (PSR sort gate)” value is listed as “high polyreactivity”. The entry for “QLQLVESAVGLDQAVDILRLSSAASGFIFPGNMGWYRKAPGKETELVAAISWSGGSTRYADSVKGRFTISRDNAKNTVYLQMNSLKPEDTAVYYCAASLSGKRFNKRYYWGQGTQVTVSS” is “high polyreactivity”. “QVQLVESGGGLVQAGGSLRLSCAASGRIFASNAMGWYRQAPGKERELVAAITTTGGSTYYADSVKGRFTISRDNAKNTVYLQMNSLKPEDTAVYYCAARAIPRVRRYGSMNYWGQGTQVTVSS”: the “polyreactivity (PSR sort gate)” value is on record as “high polyreactivity”. With “QVQLVESGVGLVQAGGSLRLSCASSGFIFDTYAMGLYRQAPGKERELVAVISSGGSTYYADSVKGRFTISRDNAKNTVYLQMNSLKPEDTAVYYCAADSGYLGIYGDEYSWGQGTQVTVSS”, the “polyreactivity (PSR sort gate)” value is recorded as “low polyreactivity”. To “QVQLVESGGGLVQAGGSLRLSCAASGSIFRGNAMGWSRQAPAKERELVAAISKSGGSTYYADSVKGRFTISRDNAKNTVYLQMNSLKPEDTAVYYCAARTTYLYGMYYWGQGTQVTVSS” belongs “low polyreactivity”; to “QVQLVESGGGLVQAGVSLRLSCAASGSTYNAMGWYRQAPGKEREFVAAITSSGGSTYYADSVKGRFTISRDNAKNTVYLHMNSLNPEDTAVYYCASSYWTAWYQLDYWGQGTQVTVSS”, “high polyreactivity”; to “QVQLVESGGGLVQAGGSLRLSCAASGRTFGDYDMGWYRQAPGKERELVAAITSDGTTYYADSVKGRFTISRDNAKNTVYLQMNSLKPEDTAVYYCAADYWYVSWYDYWGQGTQVTVSS”, “low polyreactivity”. The entry for “QVQLVESGGGLVQAGGSLRLSCAASGSTFSYYAMGWYRQAPGKERELVARISWRGGSTYYADSVKGRFTISRDNAKNTVYLQMNSLKPEDTAVYYCAARRSGTYYGTYKSNGRNYWGQGTQVTVSS” is “high polyreactivity”; for “QVQLVESGGGLVQAGGSLRLSGAASGSTFDIYAMGWYRQPPGKESELVAAITVSGGSTYYADSVKGSFTISRDNAKNTVYLQMNSLKPEDTAVYYCNADWSGWQGWYNYWGQGTQVTVSS” it is “low polyreactivity”. To “QVQLVESGGGLVQAGGSLRLSCAASGRIFRDYAMGAYRPAPGKERELGATITRSGGRTYYADSVKGRFTISRDNAKNTVYLQMNSLKPEDTAVYYCAARWRIVSGRFDYWGQGTQVTVSS” belongs “high polyreactivity”; to “QVQLVESGGGLVQAGGSLRLSCAASGSTFIDYAMGWYRQAPGKDRELVAAITWSGSSTYYADSVKGRFTISRDNAKNTVDLQMNSLKPEDTAVYYCAARYWYQSYHTYGYYSWGQGTQVTVSS”, “low polyreactivity”. In the case of “QVHLVESGGGLVQAGGSLRLSCAASGSIFAVNAMGWYRQAPGKERELVAVITSRGGSTYYADSVKGRFTISRDNAKNTVYLQMNSLKPEDTAVYYCAARPGAAGYKYYYWGQGTQVTVSS”, the “polyreactivity (PSR sort gate)” value is listed as “high polyreactivity”. The entry for “QVQLVESGGGLVQAGGSLRLSCAASGRTFIGYAMGWYRQAPGKERELVATISVSGGSTYYADSVKGRFTISRDNAKNTVYLQMNSLKPEDTAVYYCAKAYLRYYDGPYDYWGQGTQVTVSS” is “low polyreactivity”; for “QVQLQESGGGLVQAGGSLRLSCAASGSIANLIAKGWSRQAQRKEREFVAAIGPGANTNYADSVKGRFTISRDNANNTVYRQMNSLKPEDTAVYYCAVDYYGEAVYHYWGQGTQVTVSS” it is “high polyreactivity”. The entry for “QVQLVESGGGLVQAGGSLRLICAASGYTFRGNAMGRYRPAPGKERELVAAISGSGTRTYYADSVKGRFTISRDNAKNTVYLQMNSLKPEDTAVYYCNAKSLYHYHSADFDYWGQGTQVTVSS” is “high polyreactivity”. On to “QLQLVESGGGLVQAGGSLRLSCAASGSIFCQNNMGWYRQAPGKERELVDTITSAGSTYYADSVKGRFTISRANAQNTVYLQMNSLKPEYTAVFYCAAELYRYGFYVPIYPYSYDYWGQGTQVTVSS”, for which the “polyreactivity (PSR sort gate)” value is given as “low polyreactivity”. Turning to “QVQLVESGGGLVQAGGSDRLSCAASGRTFDRYAMGWYRQAPGKERELVAAISRGGSTNYADSVKGRFTISRDNAKNTVYLQMNSLKPEDTAVYYCAARVSFLHLRRAYDYWGQGSQVTVSS”, the “polyreactivity (PSR sort gate)” value is “high polyreactivity”. The entry for “QVQLVESGGGLVQAGGSLRLSCAPSGSIFPSYAMGWYRQAPGKERELVAAISRSAGSTYYADSVKGRFTISRDNAKNTVYLQMNSLKPEDPAVYYCAADGYSSRYRYDYWGQGTQVTVSS” is “low polyreactivity”; for “QVQLVESGGGLVQAGGSLRLSCAASGRTIGSYAMGWYRQAPGKERELVAAITSSCGSTYYADSVKGRFTISRDNAKNTVYLQMNSLKPEDTAVYDCAALWGRRGWWGVSWSFSTGFDYWGQGTQVTVSS” it is “high polyreactivity”. On to “QVQLVESGGGLVQAGGSLRLSCAASGSIFHLYAMGWYRQATGKERELVAAISWSGGSTYYADSVKGRFTISRDNAKNTVYLQMNSLKPEDTAVYYCAAEYYYQFYDYPYGYEYWGQGTQVTVSS”, for which the “polyreactivity (PSR sort gate)” value was “high polyreactivity”.

In the case of “QVQLVESGGGLVQAGGSLRLRCAASGRIFTYYTMGWYIQAAGKEMELDANITTGGSTNYADSVKGRFTISRDNAENTVYLQMNSLKPEDSAVYYCNKDGVVEVRFTGRHEYDYWGQGTQVTVSS”, the “polyreactivity (PSR sort gate)” value is “low polyreactivity”.

In the case of “QVQLVESGGGLVQAGGSLRLRCADSGRTFRYNAMGWYRQAPGKERELVAGIRWSGDRTYYADSVKGRFTISHDNAKNTVYLQMNSLKPEDTAVYSCNKVYHPGYGVRATYDYWGQGTQVTVSS”, the “polyreactivity (PSR sort gate)” value is recorded as “high polyreactivity”. Take “QVQLVESGGGLVQAGGSLRLSCAASGSTSYRYAMGWYRQAPGKERELVAAIPWISDSTYYADSVKGRFTISRDNAKNTVVLQMNSLKQEDTAVYYCNTDPLVTTVTFNYWGQGTQVTVSS”: the “polyreactivity (PSR sort gate)” value is reported as “low polyreactivity”. To “QVQLVESGGGLVQAGGSLRLSCAASGRILFHYAMGWYRRAPGKERELVAAITWRGGGTHYADSVKGRFTISRDNAKNTVYLQKNSLKPEDTAVYYCNAEYNGYFSRSGFYYWGQGTQVTVSS” belongs “low polyreactivity”; to “QVQLVESGGGLVQAGGSLRLSCAASGSIVSGYAMGCYRQARGKERELVDAITRSGGRTYYADSVKGRFTISRDNAKNTVYLQMNSLKPEDTAVYYCAARGGPGDDYWGQGTQETVSS”, “high polyreactivity”. For the sequence “QVQLVESGGGLVQAGGSLRLSCAASGNIFVNYAMGWYRQAPGKERELVASINYNGGNTYYADSVKGRFTISRDNAKNTVYLQMNSLKPEDTAVYYCAKDGGGLLRWYTDEYDYWGQGTQVTVSS”, the “polyreactivity (PSR sort gate)” value is given as “low polyreactivity”. The entry for “QVQLVESGGGLVQAGGSLRLSCAASGRIFLYYAMGWYRQAPGKERELVATISSGGSTHYADSVKGRFTISRDNAKNTVYLQMNSMKPEDTAVYYCAAYGYGRGLEPSTTEMDYWGQGTQVTVSS” is “low polyreactivity”. Regarding “QVQLVESGGGLVQAGGSLRLSCAASGSTYGRNAMGWYRQATGKERELVAAINSGGGTYYADSVKGRFTISRDNAKNTVYLQMYSLKPEDTAVYYCAAARRYGKYDYWGQGTQVTVSS”, the “polyreactivity (PSR sort gate)” value was “low polyreactivity”. The entry for “QVQLVESGGGLVQAGGSLRLSCAASGSILFNNAMGWYRQAPGKERELVAAIRSNGGNTYYADSVKGRFTISCDNAKNTVYLQMNSLKPEDTAVYYCAAEKTLYGGGGWTRWFHYTYGYWGQGTQVTVSS” is “high polyreactivity”. For the sequence “QVHLVESGGGLVQAGGSLRLSCAASGRNFGTYAMGWYRQAPGKDRELVADISSSGTSTYYADSVKGRFTISRDNAKNTVYLQMNSLKPEDTAVSYCDVVAIDYAYDYYFRLGYDYWGQGTQVSVSS”, the “polyreactivity (PSR sort gate)” value was “low polyreactivity”. To “QVQLVESGGGLVQAGGSLRLSCAASGGTLQGNAMGWYRQAPGKERELVAAISSRGGRTYYADSVKGRFTISRDNAKNTVYLQMNSLKPEDTAVYYCAAVQKGDSTLLRTKGGYWGQGTQVTVSS” belongs “high polyreactivity”; to “QVQLVESVGGLVQAGGSLRLSCAASGSIFVTYAMGWYRQAPGKERELVAVITWGGGSTYYADSVKGRFTISRDNAKNTVYLQMNSLIPEDTAVYYCAKDSYYYRRDVNVDYWGQGTQVTVSS”, “low polyreactivity”. Consider “QVQHVESGGGLVQAGGSLRLSCAASGSIFDRNAMGRYRQAPGKERELVAAISGGDSTYYADSVKGRFTISRDNAKNTVYLQMNSLKPEDTAVYYCNVDFKTEYDYWGQGTQVTVSS”, for which the “polyreactivity (PSR sort gate)” value is “low polyreactivity”. Take “QVQLVESGGGLVQAGGTLRLSCAASGRTLRRYAIGWYRQAPGTERELVADNSWRGTSTNYADSVKGRFTISRDNAKNTVYLQMNSLKPEDTAVYYCAAKQTYTRLHYLGPSVWDNYDYWGQGTQVTVSS”: the “polyreactivity (PSR sort gate)” value is “high polyreactivity”.

“QFHLVESGGGLVQAGGSLRLSCAASGYTFGKYAKGWYRHAPGKDRELVAGISSRGGSTYYADSVKWRFTISRDNAKNTVYLQMISLKPEYTAVYYCAAVAYTGGPRKLSFNYWGQGTQVTLSS”: the “polyreactivity (PSR sort gate)” value is “high polyreactivity”. To “QVQLVESGGGLVQAGGSLRLTCAASGRTFGVYAMGWYRQAPGKERELVADITSGGGTYYADSVKGRFTILRDNAKNTVYLQMNSLKPEDTAVYYCAARKWYYAYEYWGQGTQVTVSS” belongs “high polyreactivity”; to “QVQLVESGGGLVQAGGSLRLSCAASGNAMGWYRQAPGKERELVAAITRRGGSTYYADSVKGRFTISRDNAKNTVYLQMNSLKPEDTAVYYCNADYAYYSYDYWGQGTQVTVSS”, “low polyreactivity”; to “QVQLVESGGGLVQAGGSLRLTCAASGSIFYFNTMGWYRQAPGKERELVAVISRRGGSTYYADSVKGRFTISRDNAKNTVYLQMNSLKPEDTAVYYCNAEVFDLWRSFLSPYEYWGQGTQVTVSS”, “low polyreactivity”. For “QVQLVESGGGLVQAGGSLRLSCAASGFTFFSNAMGWYIQAPGKERELVAAITSSGGSTYADSVKGRFTISRDNAKNTVYLQMNSLKPEDTAVYYCAADAQAPPGGFKEYDYWGQGTQVTVSS”, the “polyreactivity (PSR sort gate)” value is recorded as “low polyreactivity”. To “QVQLVESGGGLVQSGGSLRLSCAASGGTFRYNAMGRYRQAPGKERELVAAITSVGITNYADSVKGRFTISRDNAKNTVYLQMNSLNPEDTAVYYCAKRYYRYGARSWYYPYDYWGQGTQVTVSS” belongs “high polyreactivity”.
